This note sets out measurements from patent publication US20230265198A1 (TWIST BIOSCIENCE, published 2023).

B1: NRP1-55 (VHH)
VHH: EVQLVESGGGLVQPGGSLRLSCAASGFTLDYYVMGWFRQAPGKEREWVAFISGSGSKFYADSVKGRFTISADNSKNTAYLQMNSLKPEDTAVYYCVIQHFWSGYDDDYWGQGTLVTVSS
B2: NRP1-42 (VHH)
VHH: EVQLVESGGGLVQPGGSLRLSCAASGRTISNYDMGWFRQAPGKEREWVASINWGDGNTYYADSVKGRFTISADNSKNTAYLQMNSLKPEDTAVYYCARAPTYYYDSSGYYYAYWGQGTLVTVSS
B3: NRP1-64 (VHH)
VHH: EVQLVESGGGLVQPGGSLRLSCAASGSTFRGAAMGWFRQAPGKEREWVGTISSDGTTKYADSVKGRFTISADNSKNTAYLQMNSLKPEDTAVYYCAADRVLYYSDSRYYTGSNWGQGTLVTVSS
B4: NRP1-52 (VHH)
VHH: EVQLVESGGGLVQPGGSLRLSCAASGFTFSWYPMGWFRQAPGKEREFVAAISPSGSTDYADSVKGRFTISADNSKNTAYLQMNSLKPEDTAVYYCARDPNYDFWSGYYSSEHYFDYWGQGTLVTVSS
B5: NRP1-40 (VHH)
VHH: EVQLVESGGGLVQPGGSLRLSCAASGSITSFNAMGWFRQAPGKERELVASINWSGARTLYADSVKGRFTISADNSKNTAYLQMNSLKPEDTAVYYCASARYYGSGRHFDYWGQGTLVTVSS
B6: NRP1-63 (VHH)
VHH: EVQLVESGGGLVQPGGSLRLSCAASGTFGSYTMGWFRQAPGKERELVATIWWTFDAPYYADSVKGRFTISADNSKNTAYLQMNSLKPEDTAVYYCAAYQAGWGDWGQGTLVTVSS
B7: NRP1-56 (VHH)
VHH: EVQLVESGGGLVQPGGSLRLSCAASGRTFSSYRMGWFRQAPGKEREFVASIRSSGTTYADSVKGRFTISADNSKNTAYLQMNSLKPEDTAVYYCARDTLGRASSSTDWGQGTLVTVSS
B8: NRP1-54 (VHH)
VHH: EVQLVESGGGLVQPGGSLRLSCAASGIAFRIRTMGWFRQAPGKEREFVAGISRSGASTAYADSVKGRFTISADNSKNTAYLQMNSLKPEDTAVYYCAARRIVNVEGAYRDWGQGTLVTVSS
B9: NRP1-57 (VHH)
VHH: EVQLVESGGGLVQPGGSLRLSCAASGFTFSNSGMGWFRQAPGKERELVARITRGGRTYADSVKGRFTISADNSKNTAYLQMNSLKPEDTAVYYCAARRIVNVEGAYRDWGQGTLVTVSS
B10: NRP1-39 (VHH)
VHH: EVQLVESGGGLVQPGGSLRLSCAASGRTFSGDVMGWFRQAPGKEREFVAAINYSGRSINYADSVKGRFTISADNSKNTAYLQMNSLKPEDTAVYYCARETLWLKRYWGQGTLVTVSS
B11: NRP1-60 (VHH)
VHH: EVQLVESGGGLVQPGGSLRLSCAASGNIFINNAMGWFRQAPGKERELVAAISGRSGNTYYADSVKGRFTISADNSKNTAYLQMNSLKPEDTAVYYCAARRIVNVEGAYRDWGQGTLVTVSS
B12: NRP1-66 (VHH)
VHH: EVQLVESGGGLVQPGGSLRLSCAASGRTFRPYRMGWFRQAPGKERELVAAITSGTHKDYADSVKGRFTISADNSKNTAYLQMNSLKPEDTAVYYCAADYSGSYTSLWSRPERLWGQGTLVTVSS
B13: NRP1-38 (VHH)
VHH: EVQLVESGGGLVQPGGSLRLSCAASGFTFGSTTMGWFRQAPGKEREFVATMRWSTGSTVYADSVKGRFTISADNSKNTAYLQMNSLKPEDTAVYYCAVRGDWWAYWTPWGQGTLVTVSS

For this assay, the target named is T1, neuropilin-1 (NRP1) on HEK293 cells overexpressing NRP1 (UniProt O14786 22-923, limits assumed).
T1 construct: whole, on cells
Description: flow cytometry, HEK293-NRP1 vs HEK293.
Turning to B1, the “100 nM FACS (MFI Ratio)” value worked out at 2.7. Turning to B2, the “100 nM FACS (MFI Ratio)” value was found to be 4. Take B3: the “100 nM FACS (MFI Ratio)” value came out at 0.8. To B4 belongs 10.7; to B5, 16.7; to B6, 8.3. Turning to B7, the “100 nM FACS (MFI Ratio)” value came out at 5.4. For B8, the “100 nM FACS (MFI Ratio)” value was 0.6.

B9: the “100 nM FACS (MFI Ratio)” value amounted to 0.1. As to B10, the “100 nM FACS (MFI Ratio)” value was found to be 5.6. Take B11: the “100 nM FACS (MFI Ratio)” value was determined as 1.

As to B12, the “100 nM FACS (MFI Ratio)” value came to 1.1. As for B13, the “100 nM FACS (MFI Ratio)” value was 10.5.
